# Source: the domain aggregation screens of Martell et al. (2025)
# Assay: soluble fraction after stress (log2 fold change); higher = more stays soluble; pooled small domains, quantitative proteomics
# Details: stress: 75 degC
# 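Also: 20 min heating vs room temperature control held 20 min.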
row,Sequence,soluble fraction (log2)
1,HMAEAPGSVELLAERLRPWWEIHGGEWGSKTKALRFLFGDQAPVAGSYWRALEAAIAQIESTT,-0.692
2,HMAEKNALWEEDAVYAADSSALARDGYDAIVRTDKGGKKGYLVVGTGGRERFMPLQTLVMLGYLKK,-0.433
3,HMAEKRTAIITTARADIRQKPEATAPLAFEAVKDVVLELTDKPADGWVRVKHRDGSTGYIRINQI,0.0638
4,HMAELAKAKLDAAVQVALLKAGALDTDYLAYKLQGMDGVALDDKGSLTGWDTTLETLKSQYPTQFA,-0.368
5,HMAEPTLNERLREALSDPAKLKIAKAIKAKYPIITARDIDTFLNMHEKDIENGADPMDEFEEFFHANY,0.201
6,HMAEPYDEDKVMEHLYIKGKDVVIAHLKHLKEHNEHVWLKKGVEWMQKNQDRLGFDMMEVIYVVHNH,-0.833
7,HMAEQEELDAIRPDLDGQEIMDILGIKPGREVGAARNFLLELRLDEGPLGYDEAVSRLLTWWAERT,-0.0583
8,HMAETLLWADAAQEGLNRIVAAQPILVRISAAKRLRDASEQAAKAAGVSTVEIGHVQHASESLQFGDA,0.0809
9,HMAETLRLVGATNLNTLARARHPDDLAARNEFRRAIAQANPALFAGKSKVGSVSLPAGTVLALPPEV,0.0163
10,HMAEVDDESIKLYDGGYQSNTTKSRLNALLSEFGYDTEHVFQKQFEWFISIFDLTEKAMRTVPFSNGMRL,0.0627
11,HMAEVGDFTLAELIKVLFNEAGVLKAPVELRNDNTGGLQYRVGAYTDSETGWETIASIADLKGA,-0.734
12,HMAEWLLVQLTNGNWFYGEVIEKTDATIVLNTDILGKVSIQKLDIRRSISGPLTAAKRQEIEDSERAKD,-1.65
13,HMAFDDAHYKDMITSYLKKFKKGNRSEIENLIIPKLSEVLVEKQKKDKVKNLLQALRKDNQIRLKGKYWYL,0.422
14,HMAFIEADIGKRIKSLRNKKRITLESLAAETGFTKGYLSKVETSEKAPPVSTLGSIARALGVSISTLLGE,-1.31
15,HMAFKDDDVQKAYDRYMDRYGELSVLYSDNGLKVDDDLFYKNNIPPNGKFTKEFFDELYELVNMEFINNY,-0.173
16,HMAFRLPNGYGTIRRLTGNRRKPYVALVNPTQVFDDEKGTSHYKYDLLGTFAEKIDAYNAVMQYHKSPGGL,-1.13
17,HMAGAPANLAARLREQILQGAYHDGQRLPAERHLAAEHGVSRGTVREALRLLEQGALLTRKRGSGSYVTYP,-0.516
18,HMAGDVVVEVVGKVRDPQVVTLPKGSRVQDALEAAGGVKPGVNTTDQNLARLLVDGEQIRIGLSS,0.107
19,HMAGFGDSLEKMSDAVEALKLLMSTEDARNDQNIQKIARELKDVFNKYRTHLRKSYPDQYDRIKSTL,-0.742
20,HMAGGNHPTRLELLDSAAHIAERDGTSALTVDAITKSAGHAKGTFYIHFDDRADLLVEMHRR,-0.247
21,HMAGIPIHMSQLKQIILLLSQGYPIKGIARETGVSRNTIKGYLQTLTSQDLNVTDALKLENIQLEYLLRSP,-1.97
22,HMAGLYSLLLVELPMERLPEDLPAIKAAWLKTGDTEAFKVALQAMSSRGWTIAVPGKHRDTQMTQL,0.259
23,HMAGPVLTPEEAEVLRILADHGEMTVDNISAEGKMSAAVVLRGLGVLSAYGLVAPGGPGRWRSE,-0.806
24,HMAGTDLSERESEIAMLLLKGYPYKLIASRLYISESTVKSHVQNIYGKLGIHSRTELIEQFSAS,-0.649
25,HMAGTPAIVKWFNPTKGFGFVTPKEAGSDALLHASVLAKRGKRWLQEGTLVEVLIEEGPKGLVVSELLTIE,-0.84
26,HMAGTRRFELVEGSSSKFWEVTVADGSYTVTYGRIGTAGGSKTTESATAEADAEKLVREKLKKGYQEAGAA,0.102
27,HMAGTRVWSENGQLYVTAAVSGRANVYNVLGKLNRSLTFSAGETKSVSVPAGIYVVSLNNGKAYKVAV,-3.28
28,HMAGWIPVEERLPDDLTNPITRDAYVYPVTVDLGDVTDIRYYSFWRGHWYNQGPETMDDLVIAWMLLPEPY,-0.279
29,HMAHESYVKEQLLLSLTNHEDPIMQISLIEQLTKMHERNIIHELEKLTVDVQTNEEVKVQAYASLLILS,-0.869
30,HMAHKYYSIMRPVSIGTFPDNGTILGIVNFDTRQMVESIGKMAWGYINYGKPLTEKQISDYELVAE,-1.4
